Where no end group is shown, it is not given here. [ ]: non-standard residue; d: D form. The star is where a group is joined. Orn = NCCC[C@H](N)C(=O)O; Hexanoyl = CCCCCC(=O)*; Aib = CC(C)(N)C(=O)O
T1: human VPAC2 receptor (human, UniProt P41587 24-438)
T1 sequence (looked up): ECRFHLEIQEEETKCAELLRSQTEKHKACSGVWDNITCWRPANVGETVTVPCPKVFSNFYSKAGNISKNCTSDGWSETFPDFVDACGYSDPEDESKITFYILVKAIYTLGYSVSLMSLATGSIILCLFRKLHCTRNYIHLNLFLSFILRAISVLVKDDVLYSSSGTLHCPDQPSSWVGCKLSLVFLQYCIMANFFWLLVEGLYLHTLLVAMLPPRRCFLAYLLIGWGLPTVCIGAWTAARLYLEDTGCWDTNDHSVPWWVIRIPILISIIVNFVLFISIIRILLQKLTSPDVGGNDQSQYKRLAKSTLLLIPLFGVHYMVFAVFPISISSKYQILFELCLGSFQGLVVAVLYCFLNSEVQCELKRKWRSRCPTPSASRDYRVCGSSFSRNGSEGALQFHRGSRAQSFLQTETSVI

T2: human VPAC1 receptor (human, UniProt P32241 31-457)
T2 sequence (looked up): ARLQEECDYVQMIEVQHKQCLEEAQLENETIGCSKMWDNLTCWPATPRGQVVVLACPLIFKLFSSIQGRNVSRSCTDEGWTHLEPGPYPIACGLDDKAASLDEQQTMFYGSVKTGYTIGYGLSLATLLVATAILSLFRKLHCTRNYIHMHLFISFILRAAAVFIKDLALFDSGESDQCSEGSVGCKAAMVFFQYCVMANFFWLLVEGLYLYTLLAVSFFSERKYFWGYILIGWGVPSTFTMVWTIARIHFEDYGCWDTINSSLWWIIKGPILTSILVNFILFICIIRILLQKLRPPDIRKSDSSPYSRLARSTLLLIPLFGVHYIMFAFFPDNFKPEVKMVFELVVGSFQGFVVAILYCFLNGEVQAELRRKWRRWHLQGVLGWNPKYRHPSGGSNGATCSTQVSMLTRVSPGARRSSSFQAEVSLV

T3: human PAC1 receptor (human, UniProt P41586 21-468)
T3 sequence (looked up): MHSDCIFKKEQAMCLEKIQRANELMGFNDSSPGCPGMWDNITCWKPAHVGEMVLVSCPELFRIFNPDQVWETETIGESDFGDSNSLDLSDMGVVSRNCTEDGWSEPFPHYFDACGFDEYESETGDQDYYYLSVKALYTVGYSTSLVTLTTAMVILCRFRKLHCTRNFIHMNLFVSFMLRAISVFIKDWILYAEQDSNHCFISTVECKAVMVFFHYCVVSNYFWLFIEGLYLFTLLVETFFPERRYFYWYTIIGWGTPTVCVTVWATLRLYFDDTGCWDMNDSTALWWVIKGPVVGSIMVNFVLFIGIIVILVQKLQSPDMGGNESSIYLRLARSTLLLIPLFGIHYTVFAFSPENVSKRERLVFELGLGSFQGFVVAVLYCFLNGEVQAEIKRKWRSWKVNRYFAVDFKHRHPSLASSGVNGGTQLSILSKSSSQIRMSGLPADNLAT

T4: rat VPAC1 receptor (rat, UniProt P30083 31-459)
T4 sequence (looked up): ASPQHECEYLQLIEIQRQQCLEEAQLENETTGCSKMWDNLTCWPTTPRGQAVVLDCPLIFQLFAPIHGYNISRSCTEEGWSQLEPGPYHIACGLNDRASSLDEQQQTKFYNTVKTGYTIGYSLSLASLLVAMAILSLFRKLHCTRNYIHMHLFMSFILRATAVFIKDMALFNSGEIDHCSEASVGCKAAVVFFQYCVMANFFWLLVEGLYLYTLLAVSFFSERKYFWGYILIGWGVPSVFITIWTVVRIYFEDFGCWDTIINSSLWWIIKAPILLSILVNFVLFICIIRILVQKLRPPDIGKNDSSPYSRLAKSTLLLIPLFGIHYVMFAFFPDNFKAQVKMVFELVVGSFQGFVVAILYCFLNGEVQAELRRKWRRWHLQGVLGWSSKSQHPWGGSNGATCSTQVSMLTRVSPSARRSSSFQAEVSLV


Each binder was assayed against T1, human VPAC2 receptor (assay: cell-based or functional assay).

Binder	EC50 cAMP, Alpha Screen [nM]	EC50 cAMP, DiscoveRx [nM]
Hexanoyl-HSDAVFTDNYTRLRKQVAAKKYLQTIKNKRYGGPSSGAPPPS [P115]	0.2	–
Hexanoyl-HSDAVFTDNYTRL[Aib]KQLAAK[Aib]YLQSIKNKRYGGPSSGAPPPS (ends and bridges not checked) [P241]	2.17	–
Hexanoyl-HSDAVFTDNYTRLQKQVAAK[Aib]YLQSIKNKRYGGPSSGAPPPS (ends and bridges not checked) [P251]	0.92	–
Hexanoyl-HSDAVFTDNYTRLR[Aib]QLAA[Aib]KYLQSIKNKRYGGPSSGAPPPS (ends and bridges not checked) [P291]	0.36	–
Hexanoyl-HSDAVFTDNYTRLRKQVAAKKYLQSIKQKGGPSSGAPPPS [P270]	0.13	–
Hexanoyl-HSDAVFTDNYTRLRKQVAAKKYLQSIKNGGPSSGAPPPS [P154]	0.18	–
Hexanoyl-HSDAVFTDNYTRLR[Aib]QVAA[Aib][Orn]YLQSIKNKRYGGPSSGAPPPS (ends and bridges not checked) [P342]	0.21	–
HSDAVFTDNYTXLRXQVAAXKYLQSIKNKRYGGPSSGAPPPS (N-terminal hexanoyl (C6); Orn at 12; Aib at 15, 20) [P344]	0.13	–
Hexanoyl-HSDAVFTDNYTR[Aib]R[Aib]QVAA[Aib]KYLQSIKNKRYGGPSSGAPPPS (ends and bridges not checked) [P346]	0.23	–
HPDAVFTDNYTRLRKQVAAKKYLQSIKNKRYGGPSSGAPPPS [P49]	–	13.4
HSDYVFTDNYTRLRKQVAAKKYLQSIKNKRYGGPSSGAPPPS [P51]	–	91.1
HSDFVFTDNYTRLRKQVAAKKYLQSIKNKRYGGPSSGAPPPS [P52]	–	140
HSDVVFTDNYTRLRKQVAAKKYLQSIKNKRYGGPSSGAPPPS [P53]	–	50.5
HSDTVFTDNYTRLRKQVAAKKYLQSIKNKRYGGPSSGAPPPS [P54]	–	32.8
HSDLVFTDNYTRLRKQVAAKKYLQSIKNKRYGGPSSGAPPPS (not fully specified) [P55]	–	15.3

What follows are binders tested against T2, human VPAC1 receptor (assay: cell-based or functional assay).

Binder	EC50 cAMP, DiscoveRx [nM]
HPDAVFTDNYTRLRKQVAAKKYLQSIKNKRYGGPSSGAPPPS [P49]	22.8
HSDYVFTDNYTRLRKQVAAKKYLQSIKNKRYGGPSSGAPPPS [P51]	3.61
HSDFVFTDNYTRLRKQVAAKKYLQSIKNKRYGGPSSGAPPPS [P52]	37.5
HSDVVFTDNYTRLRKQVAAKKYLQSIKNKRYGGPSSGAPPPS [P53]	118
HSDTVFTDNYTRLRKQVAAKKYLQSIKNKRYGGPSSGAPPPS [P54]	84.1
HSDLVFTDNYTRLRKQVAAKKYLQSIKNKRYGGPSSGAPPPS (not fully specified) [P55]	134

The binders below were run against T3, human PAC1 receptor (assay: cell-based or functional assay).

Binder	EC50 cAMP, DiscoveRx [nM]
HPDAVFTDNYTRLRKQVAAKKYLQSIKNKRYGGPSSGAPPPS [P49]	44.2
HSDYVFTDNYTRLRKQVAAKKYLQSIKNKRYGGPSSGAPPPS [P51]	> 1000
HSDFVFTDNYTRLRKQVAAKKYLQSIKNKRYGGPSSGAPPPS [P52]	> 1000
HSDVVFTDNYTRLRKQVAAKKYLQSIKNKRYGGPSSGAPPPS [P53]	> 1000
HSDTVFTDNYTRLRKQVAAKKYLQSIKNKRYGGPSSGAPPPS [P54]	> 1000
HSDLVFTDNYTRLRKQVAAKKYLQSIKNKRYGGPSSGAPPPS (not fully specified) [P55]	> 1000

What follows are binders tested against T4, rat VPAC1 receptor (assay: cell-based or functional assay).

Binder	EC50 cAMP, DiscoveRx [nM]
Hexanoyl-HSDAVFTDNYTRLRKQVAAKKYLQTIKNKRYGGPSSGAPPPS [P115]	0.95
Hexanoyl-HSDAVFTDNYTRL[Aib]KQLAAK[Aib]YLQSIKNKRYGGPSSGAPPPS (ends and bridges not checked) [P241]	61.1
Hexanoyl-HSDAVFTDNYTRLQKQVAAK[Aib]YLQSIKNKRYGGPSSGAPPPS (ends and bridges not checked) [P251]	212
Hexanoyl-HSDAVFTDNYTRLR[Aib]QLAA[Aib]KYLQSIKNKRYGGPSSGAPPPS (ends and bridges not checked) [P291]	1.12
Hexanoyl-HSDAVFTDNYTRLRKQVAAKKYLQSIKQKGGPSSGAPPPS [P270]	0.67
Hexanoyl-HSDAVFTDNYTRLRKQVAAKKYLQSIKNGGPSSGAPPPS [P154]	0.85
Hexanoyl-HSDAVFTDNYTRLR[Aib]QVAA[Aib][Orn]YLQSIKNKRYGGPSSGAPPPS (ends and bridges not checked) [P342]	2.39
HSDAVFTDNYTXLRXQVAAXKYLQSIKNKRYGGPSSGAPPPS (N-terminal hexanoyl (C6); Orn at 12; Aib at 15, 20) [P344]	1.56
Hexanoyl-HSDAVFTDNYTR[Aib]R[Aib]QVAA[Aib]KYLQSIKNKRYGGPSSGAPPPS (ends and bridges not checked) [P346]	3.02
